This is an account of results in PMC7110144.

This experiment deals with T1, CENP-A-GFP-LacI (in S2 cells), Q9V6Q2.
T1 chain: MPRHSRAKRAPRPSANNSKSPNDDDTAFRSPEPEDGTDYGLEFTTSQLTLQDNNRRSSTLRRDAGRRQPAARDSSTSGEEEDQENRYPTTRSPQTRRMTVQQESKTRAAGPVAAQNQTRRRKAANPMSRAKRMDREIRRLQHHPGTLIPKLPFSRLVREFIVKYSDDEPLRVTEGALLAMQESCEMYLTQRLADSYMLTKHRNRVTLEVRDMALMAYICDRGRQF
The experiment can be described thus: LacO/LacI tethering assay in Drosophila S2 cells (fluorescence intensity of CAL1-V5 at the tethering site). The following applies: chain shown with the change;; parent: est. 1800; read off a plot.

B1: CAL1WT-V5 (in S2 cells), Q9VEN2 W22R; F29R (protein)
chain: MANAVVDEETLEAMVYERSKARSSKMADRASLEDGMEIDVAEFDNLFHGEDEDPDLDDVAKEAVEDNVPDEAKLEMGHINATSVTELTLILCANEDNEAKAEIEEILNQTVPVVEEHKRKWREAGLDRILDTFDEKQIEHHVGRWMRRHNSVYLEASPPKYLPPHHNSISDESDESMHSIDTARYIQQSRRRNAHMTNKNMTTIKMYRKHSHKRDELRAKYAYGDEQEHRHHMQAVLLRRRERERQLAYLASTPMQCVYSSGHHMRRKNLRKRRINSWMFDSASSSEEDTSFGGCDCHSCRRHYALSRSVYQSCPYGRGQREYHHRQMASRTMHTMRRQHTFDMEMDLRPRLPENECSCCNSDRLCSNVIHIANSSTEEWVVENRSNHLTQETQEKTRKQKHQPMDARKVSHQPVCSKGHEQKPLSSKATSVSKLVLSKEKYMQMFDSESSDEDNALAKKGLLCCSDKKKGMTFPTPNAAGKITHPTSSAKKAIRKEARPNGLAQIQEEGPTATNSPIESTYLPVAHMKSVSIDGSSGTSATFESPAKKAPKRGIRETSPLNGNELQQLISTIPIADEKASSLMEKVDNCIGRESFDDRNKDFMHMENSSTKTAVEKSTKQKRVSGKKSEIPKSIITNNEILEKNSTETLSEKQVAAKAKKQSVRKTGATGKPSTSRLKKSEKTKTTSSVTSTSKLEQVREEESDVSSEVLAKPKPQCSTTASILKQGGDGASNSEDDLQIALAMSKATYKEEQQKRKKTKREPSNKQPQSPAEKSMTVFNNQSVACNSTALANDTACYRVLPKRRGVKRAAAVSTTEEKTATNSSSSPTSSLEEMGSPTGGDPDCTVVTSTTGCEPPASERQEIPATIKITKRGILLHSPSAPEGASFTLTEQGLGKIIGERWARKYLKYHIGSRSFDSRHSVYYQPTPQLAAALSAPQDAQNIGNISGSSASDDDIFEQINRYGTVYSILENNSGDK
Take B1: the response was determined as 120 a.u.

B2: CAL1WT-V5 (in S2 cells), Q9VEN2 F43R (protein)
chain: MANAVVDEETLEAMVYERSKAWSSKMADFASLEDGMEIDVAERDNLFHGEDEDPDLDDVAKEAVEDNVPDEAKLEMGHINATSVTELTLILCANEDNEAKAEIEEILNQTVPVVEEHKRKWREAGLDRILDTFDEKQIEHHVGRWMRRHNSVYLEASPPKYLPPHHNSISDESDESMHSIDTARYIQQSRRRNAHMTNKNMTTIKMYRKHSHKRDELRAKYAYGDEQEHRHHMQAVLLRRRERERQLAYLASTPMQCVYSSGHHMRRKNLRKRRINSWMFDSASSSEEDTSFGGCDCHSCRRHYALSRSVYQSCPYGRGQREYHHRQMASRTMHTMRRQHTFDMEMDLRPRLPENECSCCNSDRLCSNVIHIANSSTEEWVVENRSNHLTQETQEKTRKQKHQPMDARKVSHQPVCSKGHEQKPLSSKATSVSKLVLSKEKYMQMFDSESSDEDNALAKKGLLCCSDKKKGMTFPTPNAAGKITHPTSSAKKAIRKEARPNGLAQIQEEGPTATNSPIESTYLPVAHMKSVSIDGSSGTSATFESPAKKAPKRGIRETSPLNGNELQQLISTIPIADEKASSLMEKVDNCIGRESFDDRNKDFMHMENSSTKTAVEKSTKQKRVSGKKSEIPKSIITNNEILEKNSTETLSEKQVAAKAKKQSVRKTGATGKPSTSRLKKSEKTKTTSSVTSTSKLEQVREEESDVSSEVLAKPKPQCSTTASILKQGGDGASNSEDDLQIALAMSKATYKEEQQKRKKTKREPSNKQPQSPAEKSMTVFNNQSVACNSTALANDTACYRVLPKRRGVKRAAAVSTTEEKTATNSSSSPTSSLEEMGSPTGGDPDCTVVTSTTGCEPPASERQEIPATIKITKRGILLHSPSAPEGASFTLTEQGLGKIIGERWARKYLKYHIGSRSFDSRHSVYYQPTPQLAAALSAPQDAQNIGNISGSSASDDDIFEQINRYGTVYSILENNSGDK
For B2, the response is 590 a.u.
